Results reported in patent US20150105316A1 (TREVENA, published 2015).
Where no end group is shown, it is not given here. [ ]: non-standard residue; d: D form. The star is where a group is joined. Ac6c = NC1(C(=O)O)CCCCC1; Ac5c = NC1(C(=O)O)CCCC1; Aib = CC(C)(N)C(=O)O; NHiPr = CC(C)N*; Sar = CNCC(=O)O

Key:
Assay in all cases: cell-based or functional assay
[1] = molecular target: T1, human angiotensin 2 type 1 receptor (human, UniProt P30556 1-359)
T1 sequence (looked up): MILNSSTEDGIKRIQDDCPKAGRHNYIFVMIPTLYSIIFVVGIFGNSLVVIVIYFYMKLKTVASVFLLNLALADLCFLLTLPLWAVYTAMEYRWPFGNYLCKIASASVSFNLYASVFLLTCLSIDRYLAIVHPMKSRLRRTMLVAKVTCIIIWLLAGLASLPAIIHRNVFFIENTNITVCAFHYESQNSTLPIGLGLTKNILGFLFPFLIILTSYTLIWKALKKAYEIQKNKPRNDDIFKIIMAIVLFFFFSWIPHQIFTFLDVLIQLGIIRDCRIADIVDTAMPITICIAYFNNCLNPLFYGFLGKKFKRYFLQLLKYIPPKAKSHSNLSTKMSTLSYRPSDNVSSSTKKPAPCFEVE

[2] = molecular target: T2, rat angiotensin 2 type 1 receptor (rat, UniProt P25095 1-359)
T2 sequence (looked up): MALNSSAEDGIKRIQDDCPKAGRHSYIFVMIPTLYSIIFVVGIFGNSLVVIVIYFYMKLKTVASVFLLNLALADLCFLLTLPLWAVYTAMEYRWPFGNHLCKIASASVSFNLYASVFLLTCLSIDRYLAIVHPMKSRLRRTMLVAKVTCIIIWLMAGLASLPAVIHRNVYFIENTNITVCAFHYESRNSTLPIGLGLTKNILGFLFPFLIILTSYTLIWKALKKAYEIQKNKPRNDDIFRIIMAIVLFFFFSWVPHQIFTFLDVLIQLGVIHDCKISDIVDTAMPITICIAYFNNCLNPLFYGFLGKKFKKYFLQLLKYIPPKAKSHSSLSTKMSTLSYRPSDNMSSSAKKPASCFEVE

[3] = molecular target: T1, human angiotensin 2 type 1 receptor; remark: listed apart in the source
[4] = molecular target: T2, rat angiotensin 2 type 1 receptor; remark: listed apart in the source

Binder: [Sar]RVY[Ac6c]HP-NHEt [SEQ ID NO: 48 (Sar-Arg-Val-Tyr-cyHex-His-Pro-NH-ethyl)]
- beta-arrestin2 assay EC50 [1]: > 3.2 nM
- beta-arrestin2 assay Span [1]: < 101
- beta-arrestin2 assay pEC50 [1]: < 8.5
- beta-arrestin2 assay EC50 [2]: > 3.2 nM
- beta-arrestin2 assay Span [2]: < 105
- beta-arrestin2 assay pEC50 [2]: < 8.5

Binder: [Sar]RVY[Aib]HPV [SEQ ID NO: 33 (Sar-Arg-Val-Tyr-AA01-His-Pro-Val)]
- IP1 G-protein assay EC50 [3]: > 1.3 nM
- IP1 G-protein assay Span [3]: < 103
- IP1 G-protein assay pEC50 [3]: < 9.2
- beta-arrestin2 assay EC50 [1]: > 3.2 nM
- beta-arrestin2 assay Span [1]: < 101
- beta-arrestin2 assay pEC50 [1]: < 8.5
- beta-arrestin2 assay EC50 [2]: > 3.2 nM
- beta-arrestin2 assay Span [2]: < 105
- beta-arrestin2 assay pEC50 [2]: < 8.5

Binder: [Sar]RVY[Ac5c]HPV [SEQ ID NO: 20 (Sar-Arg-Val-Tyr-cyPen-His-Pro-Val)]
- IP1 G-protein assay EC50 [3]: > 1.3 nM
- IP1 G-protein assay Span [3]: < 103
- IP1 G-protein assay pEC50 [3]: < 9.2
- IP1 G-protein assay EC50 [4]: > 0.6 nM
- IP1 G-protein assay Span [4]: < 104
- IP1 G-protein assay pEC50 [4]: < 9.2
- beta-arrestin2 assay EC50 [1]: > 3.2 nM
- beta-arrestin2 assay Span [1]: < 101
- beta-arrestin2 assay pEC50 [1]: < 8.5
- beta-arrestin2 assay EC50 [2]: > 3.2 nM
- beta-arrestin2 assay Span [2]: < 105
- beta-arrestin2 assay pEC50 [2]: < 8.5

Binder: [Sar]RVY[Ac6c]HPK [SEQ ID NO: 50 (Sar-Arg-Val-Tyr-cyHex-His-Pro-Lys)]
- beta-arrestin2 assay EC50 [1]: > 3.2 nM
- beta-arrestin2 assay Span [1]: < 101
- beta-arrestin2 assay pEC50 [1]: < 8.5
- beta-arrestin2 assay EC50 [2]: > 3.2 nM
- beta-arrestin2 assay Span [2]: < 105
- beta-arrestin2 assay pEC50 [2]: < 8.5

B1: SEQ ID NO: 52 (Sar-Arg-Val-D-Cys-Ile-His-Cys-D-Ala) (peptide)
peptide: [Sar]RV[dC]IHC[dA]
modifications: not fully specified; printed as Sar-Arg-Val-D-Cys-Ile-His-Cys-D-Ala; cysteine pairing not given here
- beta-arrestin2 assay EC50 [1]: > 3.2 nM
- beta-arrestin2 assay Span [1]: < 101
- beta-arrestin2 assay pEC50 [1]: < 8.5
- beta-arrestin2 assay EC50 [2]: > 3.2 nM
- beta-arrestin2 assay Span [2]: < 105
- beta-arrestin2 assay pEC50 [2]: < 8.5

Binder: [Sar]RVY[Ac6c]HP-NHiPr [SEQ ID NO: 46 (Sar-Arg-Val-Tyr-cyHex-His-Pro-NH-i-Pr)]
- IP1 G-protein assay EC50 [3]: > 1.3 nM
- IP1 G-protein assay Span [3]: < 103
- IP1 G-protein assay pEC50 [3]: < 9.2
- beta-arrestin2 assay EC50 [1]: > 3.2 nM
- beta-arrestin2 assay Span [1]: < 101
- beta-arrestin2 assay pEC50 [1]: < 8.5
- beta-arrestin2 assay EC50 [2]: > 3.2 nM
- beta-arrestin2 assay Span [2]: < 105
- beta-arrestin2 assay pEC50 [2]: < 8.5

Binder: [Sar]RVY[Ac5c]HPI [SEQ ID NO: 18 (Sar-Arg-Val-Tyr-cyPen-His-Pro-Ile)]
- IP1 G-protein assay EC50 [3]: > 1.3 nM
- IP1 G-protein assay Span [3]: < 103
- IP1 G-protein assay pEC50 [3]: < 9.2
- IP1 G-protein assay EC50 [4]: > 0.6 nM
- IP1 G-protein assay Span [4]: < 104
- IP1 G-protein assay pEC50 [4]: < 9.2
- beta-arrestin2 assay EC50 [1]: > 3.2 nM
- beta-arrestin2 assay Span [1]: < 101
- beta-arrestin2 assay pEC50 [1]: < 8.5
- beta-arrestin2 assay EC50 [2]: > 3.2 nM
- beta-arrestin2 assay Span [2]: < 105
- beta-arrestin2 assay pEC50 [2]: < 8.5

Binder: [Sar]RVY[Ac6c]HPH [SEQ ID NO: 37 (Sar-Arg-Val-Tyr-cyHex-His-Pro-His)]
- IP1 G-protein assay EC50 [4]: > 0.6 nM
- IP1 G-protein assay Span [4]: < 104
- IP1 G-protein assay pEC50 [4]: < 9.2
- beta-arrestin2 assay EC50 [1]: > 3.2 nM
- beta-arrestin2 assay Span [1]: < 101
- beta-arrestin2 assay pEC50 [1]: < 8.5
- beta-arrestin2 assay EC50 [2]: > 3.2 nM
- beta-arrestin2 assay Span [2]: < 105
- beta-arrestin2 assay pEC50 [2]: < 8.5

Binder: [Sar]RVY[Ac5c]HPL [SEQ ID NO: 19 (Sar-Arg-Val-Tyr-cyPen-His-Pro-Leu)]
- IP1 G-protein assay EC50 [3]: > 1.3 nM
- IP1 G-protein assay Span [3]: < 103
- IP1 G-protein assay pEC50 [3]: < 9.2
- IP1 G-protein assay EC50 [4]: > 0.6 nM
- IP1 G-protein assay pEC50 [4]: > 9.2
- beta-arrestin2 assay EC50 [1]: > 3.2 nM
- beta-arrestin2 assay Span [1]: < 101
- beta-arrestin2 assay pEC50 [1]: < 8.5
- beta-arrestin2 assay EC50 [2]: > 3.2 nM
- beta-arrestin2 assay Span [2]: < 105
- beta-arrestin2 assay pEC50 [2]: < 8.5

Binder: [Sar]RVY[Ac6c]HPV [SEQ ID NO: 13 (Sar-Arg-Val-Tyr-cyHex-His-Pro-Val)]
- IP1 G-protein assay EC50 [3]: > 1.3 nM
- IP1 G-protein assay pEC50 [3]: > 9.2
- IP1 G-protein assay EC50 [4]: > 0.6 nM
- IP1 G-protein assay pEC50 [4]: > 9.2
- beta-arrestin2 assay EC50 [2]: > 3.2 nM
- beta-arrestin2 assay Span [2]: < 105
- beta-arrestin2 assay pEC50 [2]: < 8.5

Binder: [Sar]RVYPHPA [SEQ ID NO: 1 (Sar-Arg-Val-Tyr-Pro-His-Pro-Ala)]
- IP1 G-protein assay EC50 [3]: > 10000 nM
- IP1 G-protein assay pEC50 [3]: > 9.2
- IP1 G-protein assay EC50 [4]: > 0.6 nM
- IP1 G-protein assay Span [4]: < 104
- IP1 G-protein assay pEC50 [4]: < 9.2
- beta-arrestin2 assay EC50 [1]: > 3.2 nM
- beta-arrestin2 assay Span [1]: < 101
- beta-arrestin2 assay pEC50 [1]: < 8.5
- beta-arrestin2 assay EC50 [2]: > 3.2 nM
- beta-arrestin2 assay Span [2]: < 105
- beta-arrestin2 assay pEC50 [2]: < 8.5

Binder: [Sar]KVY[Ac6c]HPA [SEQ ID NO: 51 (Sar-Lys-Val-Tyr-cyHex-His-Pro-Ala)]
- IP1 G-protein assay EC50 [3]: > 1.3 nM
- IP1 G-protein assay Span [3]: < 103
- IP1 G-protein assay pEC50 [3]: < 9.2
- beta-arrestin2 assay EC50 [1]: > 3.2 nM
- beta-arrestin2 assay Span [1]: < 101
- beta-arrestin2 assay pEC50 [1]: < 8.5
- beta-arrestin2 assay EC50 [2]: > 3.2 nM
- beta-arrestin2 assay Span [2]: < 105
- beta-arrestin2 assay pEC50 [2]: < 8.5

Binder: [Sar]RVY[Ac6c]HPE [SEQ ID NO: 43 (Sar-Arg-Val-Tyr-cyHex-His-Pro-Glu)]
- beta-arrestin2 assay EC50 [1]: > 3.2 nM
- beta-arrestin2 assay Span [1]: < 101
- beta-arrestin2 assay pEC50 [1]: < 8.5
- beta-arrestin2 assay EC50 [2]: > 3.2 nM
- beta-arrestin2 assay Span [2]: < 105
- beta-arrestin2 assay pEC50 [2]: < 8.5

Binder: [Sar]RVY[Ac6c]HPD [SEQ ID NO: 44 (Sar-Arg-Val-Tyr-cyHex-His-Pro-Asp)]
- IP1 G-protein assay EC50 [4]: > 0.6 nM
- IP1 G-protein assay Span [4]: < 104
- IP1 G-protein assay pEC50 [4]: < 9.2
- beta-arrestin2 assay EC50 [1]: > 3.2 nM
- beta-arrestin2 assay Span [1]: < 101
- beta-arrestin2 assay pEC50 [1]: < 8.5
- beta-arrestin2 assay EC50 [2]: > 3.2 nM
- beta-arrestin2 assay Span [2]: < 105
- beta-arrestin2 assay pEC50 [2]: < 8.5

Binder: XRVYXHPA (not fully specified; X1 Sar; X5 NMeIle) [SEQ ID NO: 58 (Sar-Arg-Val-Tyr-NMeIle-His-Pro-Ala)]
- IP1 G-protein assay EC50 [4]: > 0.6 nM
- IP1 G-protein assay Span [4]: < 104
- IP1 G-protein assay pEC50 [4]: < 9.2
- beta-arrestin2 assay Span [1]: < 101
- beta-arrestin2 assay Span [2]: < 105

Binder: [Sar]RVY[Ac6c]HPR [SEQ ID NO: 42 (Sar-Arg-Val-Tyr-cyHex-His-Pro-Arg)]
- IP1 G-protein assay EC50 [3]: > 1.3 nM
- IP1 G-protein assay Span [3]: < 103
- IP1 G-protein assay pEC50 [3]: < 9.2
- beta-arrestin2 assay EC50 [1]: > 3.2 nM
- beta-arrestin2 assay Span [1]: < 101
- beta-arrestin2 assay pEC50 [1]: < 8.5
- beta-arrestin2 assay EC50 [2]: > 3.2 nM
- beta-arrestin2 assay Span [2]: < 105
- beta-arrestin2 assay pEC50 [2]: < 8.5

Binder: [Sar]RVY[Ac6c]HP-NHMe [SEQ ID NO: 49 (Sar-Arg-Val-Tyr-cyHex-His-Pro-NH-methyl)]
- beta-arrestin2 assay EC50 [1]: > 3.2 nM
- beta-arrestin2 assay Span [1]: < 101
- beta-arrestin2 assay pEC50 [1]: < 8.5
- beta-arrestin2 assay EC50 [2]: > 3.2 nM
- beta-arrestin2 assay Span [2]: < 105
- beta-arrestin2 assay pEC50 [2]: < 8.5
